Biological target: the molecule itself
Assay: crystal structure

B1: NcdG347D, truncated dimeric protein (MGSM-H293-K700) (domain or fragment)
chain: MGSMHAALSTEVVHLRQRTEELLRCNEQQAAELETCKEQLFQSNMERKELHNTVMDLRDNIRVFCRIRPPLESEENRMCCTWTYHDESTVELQSIDAQAKSKMGQQIFSFDQVFHPLSSQSDIFEMVSPLIQSALDGYNICIFAYGQTGSGKTYTMDGVPESVGVIPRTVDLLFDSIRGYRNLGWEYEIKATFLEIYNEVLYDLLSNEQKDMEIRMAKNNKNDIYVSNITEETVLDPNHLRHLMHTAKMNRATASTAGNERSSRSHAVTKLELIGRHAEKQEISVGSINLVDLAGSESPKTSTRMTETKNINRSLSELTNVILALLQKQDHIPYRNSKLTHLLMPSLGGNSKTLMFINVSPFQDCFQESVKSLRFAASVNSCKMTKAKRNRYLNNSVANSSTQSNNSGSFDK
- stoichiometry N: 2

Reference: publication PMC3266953 (Scientific Reports, 2012)
